Some results are limits rather than exact numbers.

Test [1] has as its target T1, CD19 on RAJI (CD19+) cells (UniProt P15391 20-556, limits assumed).
T1 construct: whole, on cells
T1 sequence (looked up): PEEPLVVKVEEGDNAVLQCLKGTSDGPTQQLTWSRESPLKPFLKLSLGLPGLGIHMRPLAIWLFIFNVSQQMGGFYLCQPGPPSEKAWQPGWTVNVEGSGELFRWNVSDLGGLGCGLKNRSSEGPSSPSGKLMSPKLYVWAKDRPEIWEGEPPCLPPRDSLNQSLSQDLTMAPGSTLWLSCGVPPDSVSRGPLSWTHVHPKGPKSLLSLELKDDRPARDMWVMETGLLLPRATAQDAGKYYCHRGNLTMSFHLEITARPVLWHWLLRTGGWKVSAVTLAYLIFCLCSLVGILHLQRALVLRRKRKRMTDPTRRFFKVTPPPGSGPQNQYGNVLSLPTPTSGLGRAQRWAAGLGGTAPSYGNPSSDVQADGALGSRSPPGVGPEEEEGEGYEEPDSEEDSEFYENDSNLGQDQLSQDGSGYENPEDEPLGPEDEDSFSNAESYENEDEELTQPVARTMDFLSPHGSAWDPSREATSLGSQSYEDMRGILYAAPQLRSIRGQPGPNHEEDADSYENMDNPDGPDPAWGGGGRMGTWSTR
The test can be described thus: live cell ELISA on RAJI (CD19+) cells; OD450 grade at 1/60 dilution. As to the method:
(§1) These variants were tested for their ability to bind to cells expressing the target antigen using a live cell ELISA binding assay using filter plates and wash steps carried out using a vacuum manifold (method developed by Anne Marcil at the National Research Council, Montreal, Canada). The method was carried out as follows. Cells were maintained in exponential growth phase and then washed, counted and distributed at 10E5 cells per well in 50% medium, 50% blocking buffer. Dilutions of variants in blocking buffer were added to the cells and incubated for 1 hour at 4° C. After collection and four washes in medium, an HRP-conjugated goat anti-human IgG was added to cells which were incubated for 1 hour at 4° C. After collection and four washes in medium and 3 washes in PBS, TMB substrate was added to cells which were incubated for 25 minutes at room temperature. The reaction was stopped by addition of H₂SO4 and OD read at 450 nm. The ELISA results are depicted in Tables 17 and 18. A, B, and C refer to the ratio of Chain A to Chain B used in expression of the variant: Ratio A=Chain A/Chain B=1:1 A/B=50%/50%; Ratio B=Chain A/Chain B=2:1 A/B=66%/34%; Ratio C=Chain A/Chain B=1:2 A/B=34%/66%.
On the technique in general: An ELISA detects its analyte on a solid surface through an enzyme-linked reagent.

The target in test [2] is T2, CD3 on HBP-ALL (CD3+) cells (UniProt P07766 23-207).
T2 construct: whole, on cells; CD3 is a multi-chain complex
Nature of the test: live cell ELISA on HBP-ALL (CD3+) cells; OD450 grade at 1/60 dilution. As to the method: as §1

Test [3] addresses T2, CD3 on HBP-ALL (CD3+) cells. Nature of the test: live cell ELISA on HBP-ALL (CD3+) cells. As to the method:
as §1

B1: scMAB_LL_CD3xCD19_GSE34_GSE34, variant 1845 (bispecific antibody)
chain 1: DIQMTQSPSSLSASVGDRVTITCSASSSVSYMNWYQQTPGKAPKRWIYDTSKLASGVPSRFSGSGSGTDYTFTISSLQPEDIATYYCQQWSSNPFTFGQGTKLQITRTVAAPSVFIFPPSDEQLKSGTASVVCLLNNFYPREAKVQWKVDNALQSGNSQESVTEQDSKDSTYSLSSTLTLSKADYEKHKVYACEVTHQGLSSPVTKSFNRGECSGGGSGGGSEGGGSEGGGSEGGGSEGGGSGGGSGQVQLVQSGGGVVQPGRSLRLSCKASGYTFTRYTMHWVRQAPGKGLEWIGYINPSRGYTNYNQKVKDRFTISRDNSKNTAFLQMDSLRPEDTGVYFCARYYDDHYCLDYWGQGTPVTVSSASTKGPSVFPLAPSSKSTSGGTAALGCLVKDYFPEPVTVSWNSGALTSGVHTFPAVLQSSGLYSLSSVVTVPSSSLGTQTYICNVNHKPSNTKVDKKVEPKSCDKTHTCPPCPAPELLGGPSVFLFPPKPKDTLMISRTPEVTCVVVDVSHEDPEVKFNWYVDGVEVHNAKTKPREEQYNSTYRVVSVLTVLHQDWLNGKEYKCKVSNKALPAPIEKTISKAKGQPREPQVYVYPPSRDELTKNQVSLTCLVKGFYPSDIAVEWESNGQPENNYKTTPPVLDSDGSFALVSKLTVDKSRWQQGNVFSCSVMHEALHNHYTQKSLSLSPGK
chain 2: not shown
notes: A, B and C are the chain A : chain B DNA ratios used in expression (1:1, 2:1, 1:2); also called 1845 A; 1845 B
B1: the OD450 is more than 2 od in test [1] and 1 to 2 od in test [2].

B2: MOR208-CD19 FSA, variant 2176 (antibody, V domains shown)
VH: EVQLVESGGGLVKPGGSLKLSCAASGYTFTSYVMHWVRQAPGKGLEWIGYINPYNDGTKYNEKFQGRVTISSDKSISTAYMELSSLRSEDTAMYYCARGTYYYGTRVFDYWGQGTLVTVSS
VL: DIVMTQSPATLSLSPGERATLSCRSSKSLQNVNGNTYLYWFQQKPGQSPQLLIYRMSNLNSGVPDRFSGSGSGTEFTLTISSLEPEDFAVYYCMQHLEYPITFGAGTKLEIK
notes: Control; also called 2176 A; anti-CD19 warhead from MOR208
As for B2, the binding result in test [3] is reported as “no binding (tested: OD450 = or < negative control 1041)”.

Values taken from patent US20140072581A1 (Zymeworks, published 2014).
